From patent US20120259096A1 come the findings set out here.

In assay [1] the target is human Nav1.7 channel (type IX voltage-gated sodium channel alpha subunit) (human) (UniProt Q15858). Put plainly: cell-based or functional assay.
In assay [2] the target is recombinant rat Nav1.7 channels expressed in HEK cells (rat) (UniProt O08562). Put plainly: cell-based or functional assay.
Sequence of recombinant rat Nav1.7 channels expressed in HEK cells (rat) (O08562 whole entry): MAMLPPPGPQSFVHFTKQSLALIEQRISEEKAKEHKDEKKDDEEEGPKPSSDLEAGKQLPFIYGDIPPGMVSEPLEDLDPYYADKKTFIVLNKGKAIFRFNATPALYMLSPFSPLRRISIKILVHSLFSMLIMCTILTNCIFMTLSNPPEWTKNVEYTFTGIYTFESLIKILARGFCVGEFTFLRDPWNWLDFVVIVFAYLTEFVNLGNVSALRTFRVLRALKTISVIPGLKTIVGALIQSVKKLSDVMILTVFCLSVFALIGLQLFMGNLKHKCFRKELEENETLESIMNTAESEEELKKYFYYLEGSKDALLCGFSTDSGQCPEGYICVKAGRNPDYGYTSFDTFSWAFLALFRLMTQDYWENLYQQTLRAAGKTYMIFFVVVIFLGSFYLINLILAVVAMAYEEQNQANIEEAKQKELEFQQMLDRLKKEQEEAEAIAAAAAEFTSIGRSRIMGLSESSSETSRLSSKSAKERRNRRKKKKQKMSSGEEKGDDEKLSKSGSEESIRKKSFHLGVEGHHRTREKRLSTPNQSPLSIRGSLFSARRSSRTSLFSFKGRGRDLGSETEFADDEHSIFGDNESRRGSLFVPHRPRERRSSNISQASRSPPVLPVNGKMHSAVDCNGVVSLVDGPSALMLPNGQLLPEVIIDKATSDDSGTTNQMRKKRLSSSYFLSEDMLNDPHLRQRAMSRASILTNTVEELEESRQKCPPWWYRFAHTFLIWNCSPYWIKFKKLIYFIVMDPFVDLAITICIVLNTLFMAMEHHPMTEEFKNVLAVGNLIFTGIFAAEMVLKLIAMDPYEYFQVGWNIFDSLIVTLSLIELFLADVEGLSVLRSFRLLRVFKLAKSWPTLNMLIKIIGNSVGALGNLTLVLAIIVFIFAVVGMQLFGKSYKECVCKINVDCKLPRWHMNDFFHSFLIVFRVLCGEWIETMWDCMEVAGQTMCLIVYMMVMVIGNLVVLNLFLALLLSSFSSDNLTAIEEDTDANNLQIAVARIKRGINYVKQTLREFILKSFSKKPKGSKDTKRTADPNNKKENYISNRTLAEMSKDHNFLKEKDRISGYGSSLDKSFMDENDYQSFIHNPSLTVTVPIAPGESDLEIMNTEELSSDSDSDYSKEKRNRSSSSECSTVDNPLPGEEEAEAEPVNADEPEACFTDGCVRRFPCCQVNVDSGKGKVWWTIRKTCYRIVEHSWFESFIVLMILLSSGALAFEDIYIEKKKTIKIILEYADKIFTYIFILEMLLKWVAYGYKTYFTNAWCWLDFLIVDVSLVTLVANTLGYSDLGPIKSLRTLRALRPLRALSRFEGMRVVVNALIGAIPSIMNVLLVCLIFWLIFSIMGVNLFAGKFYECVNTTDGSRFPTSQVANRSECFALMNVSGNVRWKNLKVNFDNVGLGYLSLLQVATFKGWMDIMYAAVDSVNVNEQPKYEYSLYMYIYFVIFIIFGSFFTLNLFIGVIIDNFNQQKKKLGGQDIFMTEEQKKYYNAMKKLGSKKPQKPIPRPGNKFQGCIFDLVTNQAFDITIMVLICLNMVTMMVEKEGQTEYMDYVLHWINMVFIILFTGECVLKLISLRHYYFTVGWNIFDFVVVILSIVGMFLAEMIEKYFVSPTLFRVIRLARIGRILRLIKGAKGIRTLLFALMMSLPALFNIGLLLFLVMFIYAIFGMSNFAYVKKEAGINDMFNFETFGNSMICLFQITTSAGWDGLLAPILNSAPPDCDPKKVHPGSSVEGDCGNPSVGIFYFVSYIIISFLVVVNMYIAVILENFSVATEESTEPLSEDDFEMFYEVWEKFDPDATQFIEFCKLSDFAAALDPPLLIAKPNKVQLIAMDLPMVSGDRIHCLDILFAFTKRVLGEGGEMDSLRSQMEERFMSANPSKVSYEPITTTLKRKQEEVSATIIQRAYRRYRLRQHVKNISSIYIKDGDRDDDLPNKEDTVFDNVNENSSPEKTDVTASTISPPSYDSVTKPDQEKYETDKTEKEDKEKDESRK

B1: CA167_00983 (antibody, from another filing, rabbit IgG1, V domains shown)
VH: QSVEESGGRLVTPGTPLTLTCTVSGFSLSNYAMSWVRQAPGKGLEWIGIIGKSGSTAYASWAKGRFTISRTSTTVDLEITSPTTEDTATYFCVRFVLLWGPGTLVTVS
VL: AQVLTQTASPVSAAVGGTVTINCQSSQSVYKNNDLAWYQQKPGQPPKLLIYYASTLASGVSSRFKGSGSGTEFTLTISDAQCDDAATYYCLGSYDCSSADCNAFGGGTKVVVK
In the case of B1, the Nav1.7 inhibition (%), automated patch clamp on HEK cells, antibody at 25 µg/ml in assay [1] was 41%.

B2: CA167_01080 (antibody, from another filing, rabbit IgG1, V domains shown)
VH: QSLEESGGRLVTPETPLTLTCTASGIDLSKWPMTWVRQAPGKGLEWIGIIGRSGSTNYASWAKGRFTISKTSTTVDLKMTSPTTEDTATYFCARGGSYYDLWGQGTLVTVS
VL: AQVLTQTASPVSAAVGNTVTITCQSSQSVWKNNDLSWYQQKLGQPPKLLIYYASTLASGVSSRFKASGSGTQFTLTISDVQCDDAGTYYCVGSYDCSSADCNAFGGGTKVVVK
B2 showed a Nav1.7 inhibition (%), automated patch clamp on HEK cells, antibody at 25 µg/ml in assay [1] of 46%. In assay [2], the inhibition of Nav1.7 currents, automated patch clamp on HEK cells, antibody at 25 µg/ml turned out to be 26%.
